Assay results reported in the RNAGym collection of RNA variant scans (doi:10.7554/elife.90254).

B1: LINE1-mini (parent)
chain: GGCAGAGCUCAACACAGCGUGGCAAAGUGGCUGUGGCUAGACUGCC

Variants of: B1
Assay: self-cleavage, relative activity (ratio to wild type); higher = more cleavage; in vitro, sequencing; the parent is a self-cleaving ribozyme

| Variant | self-cleavage |
| --- | --- |
| GGCAGAGCUCAACACAGCGUGGCAAAGUGGCUGUGGCAAGACCGCC | 0.13 |
| GGCAGAGCUCAACACAGCGUGGCAAAGUGGCUGUGGCAAGACAGCC | 0.03 |
| GGCAGAGCUCAACACAGCGUGGCAAAGUGGCUGUGGCUCGAUUGCC | 0.05 |
| GGCAGAGCUCAACACAGCGUGGCAAAGUGGCUGUGGCUCGAGUGCC | 0.06 |
| GGCAGAGCUCAACACAGCGUGGCAAAGUGGCUGUGGCUCGAAUGCC | 0.1 |
| GGCAGAGCUCAACACAGCGUGGCAAAGUGGCUGUGGCUGCACUGCC | 0.08 |
| GGCAGAGCUCAACACAGCGUGGCAAAGUGGCUGUGGCUGUACUGCC | 0.14 |
| GGCAGAGCUCAACACAGCGUGGCAAAGUGGCUGUGGCUGAACUGCC | 0.05 |
| GGCAGAGCUCAACACAGCGUGGCAAAGUGGCUGUGGCUGGCCUGCC | 0.03 |
| GGCAGAGCUCAACACAGCGUGGCAAAGUGGCUGUGGCUGGGCUGCC | 0.01 |
| GGCAGAGCUCAACACAGCGUGGCAAAGUGGCUGUGGCUGGUCUGCC | 0.07 |
| GGCAGAGCUCAACACAGCGUGGCAAAGUGGCUGUGGCUGGACUGCG | 0.08 |
| GGCAGAGCUCAACACAGCGUGGCAAAGUGGCUGUGGCUGGACUGCU | 0.07 |
| GGCAGAGCUCAACACAGCGUGGCAAAGUGGCUGUGGCUGGACUGCA | 0.14 |
| GGCAGAGCUCAACACAGCGUGGCAAAGUGGCUGUGGCUCGACUGAC | 0.14 |
| GGCAGAGCUCAACACAGCGUGGCAAAGUGGCUGUGGCUCGACUGGC | 0.12 |
| GGCAGAGCUCAACACAGCGUGGCAAAGUGGCUGUGGCUCGACUGUC | 0.24 |
| GGCAGAGCUCAACACAGCGUGGCAAAGUGGCUGUGGCUCGACAGCC | 0.04 |
| GGCAGAGCUCAACACAGCGUGGCAAAGUGGCUGUGGCUCGACCGCC | 0.08 |

| Variant | self-cleavage |
| --- | --- |
| GGCAGAGCUCAACACAGCGUGGCAAAGUGGCUGUGGCAAGACUGCU | 0.3 |
| GGCAGAGCUCAACACAGCGUGGCAAAGUGGCUGUGGCAAGACUGCG | 0.38 |
| GGCAGAGCUCAACACAGCGUGGCAAAGUGGCUGUGGCUCGGCUGCC | 0.1 |
| GGCAGAGCUCAACACAGCGUGGCAAAGUGGCUGUGGCUCGCCUGCC | 0.62 |
| GGCAGAGCUCAACACAGCGUGGCAAAGUGGCUGUGGCUCGUCUGCC | 0.4 |
| GGCAGAGCUCAACACAGCGUGGCAAAGUGGCUGUGGCUUGAUUGCC | 0.23 |
| GGCAGAGCUCAACACAGCGUGGCAAAGUGGCUGUGGCUUGAAUGCC | 0.1 |
| GGCAGAGCUCAACACAGCGUGGCAAAGUGGCUGUGGCUUGAGUGCC | 0.03 |
| GGCAGAGCUCAACACAGCGUGGCAAAGUGGCUGUGGCAAGACUCCC | 0.09 |
| GGCAGAGCUCAACACAGCGUGGCAAAGUGGCUGUGGCAAGACUACC | 0.28 |
| GGCAGAGCUCAACACAGCGUGGCAAAGUGGCUGUGGCAAGACUUCC | 0.17 |
| GGCAGAGCUCAACACAGCGUGGCAAAGUGGCUGUGGCGAGACUUCC | 0.03 |
| GGCAGAGCUCAACACAGCGUGGCAAAGUGGCUGUGGCGAGACUACC | 0.03 |
| GGCAGAGCUCAACACAGCGUGGCAAAGUGGCUGUGGCGAGACUCCC | 0.06 |
| GGCAGAGCUCAACACAGCGUGGCAAAGUGGCUGUGGCCAGCCUGCC | 0.04 |
| GGCAGAGCUCAACACAGCGUGGCAAAGUGGCUGUGGCCAGGCUGCC | 0.11 |
| GGCAGAGCUCAACACAGCGUGGCAAAGUGGCUGUGGCCAGUCUGCC | 0.13 |
| GGCAGAGCUCAACACAGCGUGGCAAAGUGGCUGUGGCCAGACUGCC | 0.6 |
| GGCAGAGCUCAACACAGCGUGGCAAAGUGGCUGUGGCGAGACUGCC | 0.03 |

| Variant | self-cleavage |
| --- | --- |
| GGCAGAGCUCAACACAGCGUGGCAAAGUGGCUGUGGCCAGACUGCG | 0.64 |
| GGCAGAGCUCAACACAGCGUGGCAAAGUGGCUGUGGCCAGACUGCA | 1.27 |
| GGCAGAGCUCAACACAGCGUGGCAAAGUGGCUGUGGCCAGACUGCU | 0.44 |
| GGCAGAGCUCAACACAGCGUGGCAAAGUGGCUGUGGCCAUACUGCC | 0.1 |
| GGCAGAGCUCAACACAGCGUGGCAAAGUGGCUGUGGCCACACUGCC | 0.06 |
| GGCAGAGCUCAACACAGCGUGGCAAAGUGGCUGUGGCCAAACUGCC | 0.07 |
| GGCAGAGCUCAACACAGCGUGGCAAAGUGGCUGUGGCCAGAGUGCC | 0.15 |
| GGCAGAGCUCAACACAGCGUGGCAAAGUGGCUGUGGCCAGAUUGCC | 0.07 |
| GGCAGAGCUCAACACAGCGUGGCAAAGUGGCUGUGGCCAGAAUGCC | 0.07 |
| GGCAGAGCUCAACACAGCGUGGCAAAGUGGCUGUGGCUCGACUUCC | 0.1 |
| GGCAGAGCUCAACACAGCGUGGCAAAGUGGCUGUGGCUCGACUACC | 0.08 |
| GGCAGAGCUCAACACAGCGUGGCAAAGUGGCUGUGGCUCGACUCCC | 0.04 |
| GGCAGAGCUCAACACAGCGUGGCAAAGUGGCUGUGGCUGGAGUGCC | 0.03 |
| GGCAGAGCUCAACACAGCGUGGCAAAGUGGCUGUGGCUGGAAUGCC | 0.09 |
| GGCAGAGCUCAACACAGCGUGGCAAAGUGGCUGUGGCUGGAUUGCC | 0.12 |
| GGCAGAGCUCAACACAGCGUGGCAAAGUGGCUGUGGCUGGACUGCC | 0.1 |
| GGCAGAGCUCAACACAGCGUGGCAAAGUGGCUGUGGCUCGACUGCC | 0.26 |
| GGCAGAGCUCAACACAGCGUGGCAAAGUGGCUGUGGCUUGACUGCC | 0.8 |
